From patent US20240076403A1 (SIMCERE ZAIMING PHARMACEUTICAL, published 2024)

Assays:
[1] = target: T1, monkey HER2-His protein (Sino Biological, Cat. No. 90295-C08H) (monkey); test: ELISA, 0.0001 nM
T1 construct: also called monkey HER2 protein

[2] = target: T1, monkey HER2-His protein (Sino …); test: ELISA, 0.00001 nM
[3] = target: T1, monkey HER2-His protein (Sino …); test: ELISA, 0.1 nM
[4] = target: T1, monkey HER2-His protein (Sino …); test: ELISA, 1 nM
[5] = target: T1, monkey HER2-His protein (Sino …); test: ELISA, 100 nM
[6] = target: T1, monkey HER2-His protein (Sino …); test: ELISA, 0.001 nM
[7] = target: T1, monkey HER2-His protein (Sino …); test: ELISA, 10 nM
[8] = target: T1, monkey HER2-His protein (Sino …); test: ELISA, 0.01 nM
[9] = target: T2, monkey HER2-His protein (monkey); test: SPR, antibody captured on Protein A chip, monkey HER2-His analyte, 1:1 model
T2 construct: Bought protein; also called monkey HER2 protein

[10] = target: T3, recombinant human HER2-His protein (human, UniProt P04626 23-652, limits assumed); test: SPR, antibody captured on Protein A chip, human HER2-His analyte, 1:1 model
T3 construct: also called human HER2 protein; not shown: His tag
Method: The sample and running buffer were HBS-EP+ (10 mM HEPES, 150 mM NaCl, 3 mM EDTA, 0.05% surfactant P20) (GE Healthcare; BR-1006-69). The flow cell was set at 25° C. The sample block was set at 16° C. Both were pretreated with the running buffer. In each cycle, first, the antibody to be tested was captured using the Protein A chip, and then a single concentration of HER2 antigen protein was injected. The association and dissociation processes of the antibody with the antigen protein were recorded, and finally, the chip was regenerated using Glycine pH 1.5 (GE Healthcare; BR-1003-54). The association was determined by injecting different concentrations of recombinant human HER2-His in the solution and maintaining for 240 s, wherein the flow rate was 30 μL/min, and the protein was diluted in a 1:1 dilution ratio from 200 nM (see detailed results for actual concentrations tested) to obtain 5 concentrations in total. The dissociation phase was monitored for up to 600 s and triggered by switching from the sample solution to the running buffer. The surface was regenerated by washing with 10 mM glycine solution (pH 1.5) at a flow rate of 30 μL/min for 30 s. The difference in bulk refractive index was corrected by subtracting the responses obtained from the goat anti-human Fc surface. Blank injections were also subtracted (=double referencing). To calculate the apparent KD and other kinetic parameters, the Langmuir 1:1 model was used.

B1: Tab050 (2C4 human IgG1, Pertuzumab) (antibody, V domains shown)
VH: EVQLVESGGGLVQPGGSLRLSCAASGFTFTDYTMDWVRQAPGKGLEWVADVNPNSGGSIYNQRFKGRFTLSVDRSKNTLYLQMNSLRAEDTAVYYCARNLGPSFYFDYWGQGTLVTVSS
VL: DIQMTQSPSSLSASVGDRVTITCKASQDVSIGVAWYQQKPGKAPKLLIYSASYRYTGVPSRFSGSGSGTDFTLTISSLQPEDFATYYCQQYYIYPYTFGQGTKVEIKR
notes: control antibody, human IgG1
- OD450 [1]: 0.06
- OD450 [2]: 0.05
- OD450 [3]: 1.11
- OD450 [4]: 2.04
- OD450 [5]: 2.42
- OD450 [6]: 0.06
- OD450 [7]: 2.15

B2: Tab048 (FRP5 human IgG1) (antibody, V domains shown)
VH: QVQLQQSGPELKKPGETVKISCKASGYPFTNYGMNWVKQAPGQGLKWMGWINTSTGESTFADDFKGRFDFSLETSANTAYLQINNLKSEDMATYFCARWEVYHGYVPYWGQGTTVTVSS
VL: DIQLTQSHKFLSTSVGDRVSITCKASQDVYNAVAWYQQKPGQSPKLLIYSASSRYTGVPSRFTGSGSGPDFTFTISSVQAEDLAVYFCQQHFRTPFTFGSGTKLEIKR
notes: control antibody, human IgG1
- OD450 [1]: 0.05
- OD450 [8]: 0.52
- OD450 [2]: 0.05
- OD450 [3]: 1.83
- OD450 [4]: 2.24
- OD450 [5]: 2.35
- OD450 [6]: 0.11
- OD450 [7]: 2.04

B3: Tab048 (FRP5 human IgG1) (antibody, V domains shown)
VH: QVQLQQSGPELKKPGETVKISCKASGYPFTNYGMNWVKQAPGQGLKWMGWINTSTGESTFADDFKGRFDFSLETSANTAYLQINNLKSEDMATYFCARWEVYHGYVPYWGQGTTVTVSS
VL: DIQLTQSHKFLSTSVGDRVSITCKASQDVYNAVAWYQQKPGQSPKLLIYSASSRYTGVPSRFTGSGSGPDFTFTISSVQAEDLAVYFCQQHFRTPFTFGSGTKLEIKR
notes: Control antibody in human IgG1 form
- Kd [9]: 0.617 nM
- koff [9]: 0.000118 s⁻¹
- kon [9]: 191000 M⁻¹ s⁻¹
- Kd [10]: 0.337 nM
- koff [10]: 7.45e-05 s⁻¹
- kon [10]: 221000 M⁻¹ s⁻¹
